Experimental findings from publication PMC3162391 (The Journal of Biological Chemistry, 2011) are described below.

The term stoichiometry N denotes the number of molecules, sites or subunits per partner or assembly.

The series concerns the molecule itself. Nature of the series: FRET or BRET. For orientation: Bioluminescence resonance energy transfer reports proximity on the nanometre scale.

B1: CD5 BRET pair (CD5Luc and CD5GFP) (receptor, human, UniProt P06127 25-495, looked up)
chain: RLSWYDPDFQARLTRSNSKCQGQLEVYLKDGWHMVCSQSWGRSSKQWEDPSQASKVCQRLNCGVPLSLGPFLVTYTPQSSIICYGQLGSFSNCSHSRNDMCHSLGLTCLEPQKTTPPTTRPPPTTTPEPTAPPRLQLVAQSGGQHCAGVVEFYSGSLGGTISYEAQDKTQDLENFLCNNLQCGSFLKHLPETEAGRAQDPGEPREHQPLPIQWKIQNSSCTSLEHCFRKIKPQKSGRVLALLCSGFQPKVQSRLVGGSSICEGTVEVRQGAQWAALCDSSSARSSLRWEEVCREQQCGSVNSYRVLDAGDPTSRGLFCPHQKLSQCHELWERNSYCKKVFVTCQDPNPAGLAAGTVASIILALVLLVVLLVVCGPLAYKKLVKKFRQKKQRQWIGPTGMNQNMSFHRNHTATVRSHAENPTASHVDNEYSQPPRNSHLSAYPALEGALHRSSMQPDNSSDSDYDLHGAQRL
As to B1, the “stoichiometry N” value came out at 2.
